This series in a line: Pharmacokinetics of amylin in rabbits after intravenous versus intrapulmonary administration. In kind it is in vivo, New Zealand rabbits. The settings on record: for Vd: average of six; for Ke: elimination rate constant; for K12: rate constant central to peripheral compartment; for K21: rate constant peripheral to central compartment. The text has this: The table listed below discloses the average measured results
Referring to FIG. 2, the experimental results obtained were compared to the results calculated using formulae (I) through (VI). The calculated data is totally consistent with the experimental data of this EXAMPLE.

Where [1] appears, read: Intrapulmonary Administration, dose: 7.5 μg/kg.
Where [2] appears, read: Intravenous Administration, dose: 5.0 μg/kg.

The source of these data is patent US6596261B1, “Method of administering a medicinal aerosol formulation” (Aeropharm Technology Incorporated, priority 2000, dated 2003).

Ends that are not written are not given here.

Broadly, the Vd is the apparent volume that relates the amount in the body to the concentration in plasma or blood. The low end stands for confinement near the circulation, the high end for extensive tissue distribution. In the case of “amylin (KCNTATCATQRLANFLVHSSNNFGAILSSTNVGSNTY; not fully specified (C-terminus, bridges); cysteine pairing not given here; UniProt P10997 34-70, looked up) [β-cell hypoglycemic medicament; natural, synthetic, semi-synthetic or recombinant amylin or amylin analogs]”, under setting [1], the “AUC (Area under the blood concentration time course curve)” value turned out to be 16.9670 ng·min/mL; the “F (Bioavalability), Percent of administered drug absorbed from the lung dose” value is reported as 24.9%; the “T1/2 (Half life of the drug in the body)” value was determined as 26.3819 min; the Vd turned out to be 63.0911 L. Under setting [1], this substance yielded a Ke of 0.02627 min⁻¹, a K12 of 0.03211 min⁻¹ and a K21 of 0.01774 min⁻¹. Besides, under setting [2], the “AUC (Area under the blood concentration time course curve)” value was determined as 45.4016 ng·min/mL, the “T1/2 (Half life of the drug in the body)” value was 17.1771 min, the Vd is 9.5246 L and the Ke came out at 0.0403 min⁻¹. Under setting [2], this substance came in with a K12 of 0.0180 min⁻¹ and a K21 of 0.0075 min⁻¹.
